Data on two substances can be found in US20080139466A1.

The test addresses human TSH receptor on stably transfected CHO cells (JP09 cells) (human) (UniProt P16473). As to the kind of experiment: cell-based or functional assay.
UniProt P16473, sequence (P16473 21-764): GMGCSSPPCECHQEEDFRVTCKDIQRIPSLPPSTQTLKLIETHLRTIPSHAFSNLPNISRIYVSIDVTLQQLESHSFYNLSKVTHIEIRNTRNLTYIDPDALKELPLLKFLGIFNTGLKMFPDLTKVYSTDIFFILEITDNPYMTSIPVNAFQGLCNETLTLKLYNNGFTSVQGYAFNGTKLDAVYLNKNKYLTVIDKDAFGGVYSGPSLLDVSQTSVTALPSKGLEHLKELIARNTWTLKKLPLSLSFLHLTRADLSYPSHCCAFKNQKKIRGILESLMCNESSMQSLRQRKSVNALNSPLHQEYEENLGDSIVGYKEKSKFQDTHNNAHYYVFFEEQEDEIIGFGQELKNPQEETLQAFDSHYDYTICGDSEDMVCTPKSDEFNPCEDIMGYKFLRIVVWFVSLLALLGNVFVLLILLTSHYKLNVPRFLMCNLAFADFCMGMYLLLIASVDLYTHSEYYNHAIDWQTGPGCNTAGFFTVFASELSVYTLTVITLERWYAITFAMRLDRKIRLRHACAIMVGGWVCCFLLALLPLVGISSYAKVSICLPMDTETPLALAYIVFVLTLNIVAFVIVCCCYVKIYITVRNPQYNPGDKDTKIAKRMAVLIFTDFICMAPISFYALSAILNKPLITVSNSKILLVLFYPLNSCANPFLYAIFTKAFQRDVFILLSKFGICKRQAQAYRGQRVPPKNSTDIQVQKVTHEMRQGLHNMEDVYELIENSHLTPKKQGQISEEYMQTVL

Turning to “feline thyrotropin (fTSH) α/β heterodimer (from UniProt Q52R91 25-120; Q52R90 21-132) (ligand)”, the cAMP production (cAMP released into medium, RIA) by JP09 cells is 25 pmol/mL.

Regarding “feline thyrotropin yoked polypeptide (β-subunit-CTP-α-subunit) (ligand)”, the cAMP production (cAMP released into medium, RIA) by JP09 cells came out at 70 pmol/mL.
